The source of these data is US12031160B2, “Method for the production of glufosinate-ammonium” (ZHEJIANG UNIVERSITY OF TECHNOLOGY, priority 2018, dated 2024).

Substrate in data set [1]: NC(=O)C1=CN([C@@H]2O[C@H](COP(=O)(O)OP(=O)(O)OC[C@H]3O[C@@H](n4cnc5c(N)ncnc54)[C@H](OP(=O)(O)O)[C@@H]3O)[C@@H](O)[C@H]2O)C=CC1
The experiment in a line: purified protein, by the assay type.

Substrate in data set [2]: CP(=O)(O)CCC(=O)C(=O)O
As to the kind of experiment: purified protein, by the assay type. The settings on record: other: PPO 2-10 mM, NADPH 1-5 mM, pH 7.4, 35° C., double-reciprocal plot.

Substrate in data set [3]: NC(=O)C1=CN([C@@H]2O[C@H](COP(=O)(O)OP(=O)(O)OC[C@H]3O[C@@H](n4cnc5c(N)ncnc54)[C@H](OP(=O)(O)O)[C@@H]3O)[C@@H](O)[C@H]2O)C=CC1
As to the kind of experiment: Kinetic parameters of purified mutant PPTGDH-F188P. In kind it is biochemical, Pseudomonas moorei. The settings on record: other: PPO 2-10 mM, NADPH 1-5 mM, pH 7.4, 35° C., double-reciprocal plot. As for the experimental part: (§1) 1. […] The mutant proteins were purified by Ni-NTA column(1.6×10 cm, Bio-Rad, the USA), and the specific operations were carried out as follows: (1)equilibrate a Ni-NTA column with 5 column volumes of a binding buffer(pH 8.0, 50 mM sodium phosphate buffer containing 0.3 M NaCl) until the baseline is steady; (2)load the sample with a flow rate of 1 mL/min with the amount of the loading sample of 25-40 mg/mL, thereby attaching the target protein to the Ni-NTA column; (3)wash the column with 6 column volumes of buffer A (pH 8.0, 50 mM sodium phosphate buffer containing 0.3 M NaCl and 30 mM imidazole) at a flow rate of 1 mL/min until the baseline is steady; (4)wash the column with buffer B (pH 8.0, 50 mM sodium phosphate buffer containing 0.3 M NaCl and 500 mM imidazole) at a flow rate of 1 mL/min, collect the target protein and dialyze overnight in a pH 7.5, 20 mM phosphate buffer, thereby obtaining the pure glufosinate-ammonium dehydrogenase; and (5)wash the Ni-NTA column with 5 column volumes of a binding buffer(pH 8.0, 50 mM sodium phosphate buffer containing 0.3 M NaCl) until the baseline is steady, and store the Ni-NTA column in 5 column volumes of ultrapure water containing 20% ethanol.
(§2) According to sequential mechanism in glufosinate-ammonium dehydrogenase's catalytic reaction, vmax, Km^A, Km^B can be calculated by a double-reciprocal plot, the results were shown in Table 4.

Substrate in data set [4]: CP(=O)(O)CCC(=O)C(=O)O
As to the kind of experiment: Kinetic parameters of purified mutant PPTGDH-F188P. In kind it is biochemical, Pseudomonas moorei. The settings on record: other: PPO 2-10 mM, NADPH 1-5 mM, pH 7.4, 35° C., double-reciprocal plot. The method, then:
as §1, §2

Substrate in data set [5]: NC(=O)C1=CN([C@@H]2O[C@H](COP(=O)(O)OP(=O)(O)OC[C@H]3O[C@@H](n4cnc5c(N)ncnc54)[C@H](OP(=O)(O)O)[C@@H]3O)[C@@H](O)[C@H]2O)C=CC1
As to the kind of experiment: Kinetic parameters of purified mutant PPTGDH-L107R. In kind it is biochemical, Pseudomonas moorei. The settings on record: other: PPO 2-10 mM, NADPH 1-5 mM, pH 7.4, 35° C., double-reciprocal plot. As for the experimental part:
as §1, §2

Substrate in data set [6]: CP(=O)(O)CCC(=O)C(=O)O
The experiment in a line: Kinetic parameters of purified mutant PPTGDH-L107R. It is filed as biochemical, Pseudomonas moorei. The settings on record: other: PPO 2-10 mM, NADPH 1-5 mM, pH 7.4, 35° C., double-reciprocal plot. The method, then:
as §1, §2

Substrate in data set [7]: NC(=O)C1=CN([C@@H]2O[C@H](COP(=O)(O)OP(=O)(O)OC[C@H]3O[C@@H](n4cnc5c(N)ncnc54)[C@H](OP(=O)(O)O)[C@@H]3O)[C@@H](O)[C@H]2O)C=CC1
As to the kind of experiment: Kinetic parameters of purified mutant PPTGDH-G239K. It is filed as biochemical, Pseudomonas moorei. The settings on record: other: PPO 2-10 mM, NADPH 1-5 mM, pH 7.4, 35° C., double-reciprocal plot. The method, then: as §1, §2

Substrate in data set [8]: CP(=O)(O)CCC(=O)C(=O)O
The experiment in a line: Kinetic parameters of purified mutant PPTGDH-G239K. The settings on record: other: PPO 2-10 mM, NADPH 1-5 mM, pH 7.4, 35° C., double-reciprocal plot. In kind it is biochemical, Pseudomonas moorei. The method, then:
as §1, §2

Substrate in data set [9]: NC(=O)C1=CN([C@@H]2O[C@H](COP(=O)(O)OP(=O)(O)OC[C@H]3O[C@@H](n4cnc5c(N)ncnc54)[C@H](OP(=O)(O)O)[C@@H]3O)[C@@H](O)[C@H]2O)C=CC1
The experiment in a line: Kinetic parameters of purified mutant PPTGDH-L107R-F188P-G239K. In kind it is biochemical, Pseudomonas moorei. The settings on record: other: PPO 2-10 mM, NADPH 1-5 mM, pH 7.4, 35° C., double-reciprocal plot. The method, then: as §1, §2

Substrate in data set [10]: CP(=O)(O)CCC(=O)C(=O)O
The data set is described as above. It is filed as biochemical, Pseudomonas moorei. The settings on record: other: PPO 2-10 mM, NADPH 1-5 mM, pH 7.4, 35° C., double-reciprocal plot. As for the experimental part:
as §1, §2

Substrate in data set [11]: NC(=O)C1=CN([C@@H]2O[C@H](COP(=O)(O)OP(=O)(O)OC[C@H]3O[C@@H](n4cnc5c(N)ncnc54)[C@H](OP(=O)(O)O)[C@@H]3O)[C@@H](O)[C@H]2O)C=CC1
As to the kind of experiment: Kinetic parameters of purified mutant PPTGDH-F357G. It is filed as biochemical, Pseudomonas moorei. The settings on record: other: PPO 2-10 mM, NADPH 1-5 mM, pH 7.4, 35° C., double-reciprocal plot. As for the experimental part: as §1, §2

Substrate in data set [12]: CP(=O)(O)CCC(=O)C(=O)O
The experiment in a line: Kinetic parameters of purified mutant PPTGDH-F357G. In kind it is biochemical, Pseudomonas moorei. The settings on record: other: PPO 2-10 mM, NADPH 1-5 mM, pH 7.4, 35° C., double-reciprocal plot. As for the experimental part: as §1, §2

Substrate in data set [13]: NC(=O)C1=CN([C@@H]2O[C@H](COP(=O)(O)OP(=O)(O)OC[C@H]3O[C@@H](n4cnc5c(N)ncnc54)[C@H](OP(=O)(O)O)[C@@H]3O)[C@@H](O)[C@H]2O)C=CC1
The experiment in a line: Kinetic parameters of purified mutant PPTGDH-L107R-F188P. It is filed as biochemical, Pseudomonas moorei. The settings on record: other: PPO 2-10 mM, NADPH 1-5 mM, pH 7.4, 35° C., double-reciprocal plot. The method, then: as §1, §2

Substrate in data set [14]: CP(=O)(O)CCC(=O)C(=O)O
The data set is described as above. It is filed as biochemical, Pseudomonas moorei. The settings on record: other: PPO 2-10 mM, NADPH 1-5 mM, pH 7.4, 35° C., double-reciprocal plot. As for the experimental part:
as §1, §2

[15] abbreviates: other: PPO 2-10 mM, NADPH 1-5 mM, pH 7.4, 35° C., double-reciprocal plot.

Changes are numbered by the printed parent chain. Names may count otherwise.

B1: Pseudomonas moorei glufosinate-ammonium dehydrogenase E3 (PPTGDH, PPTGDHE3, WP_090325311.1), wild type, SEQ ID NO: 6 (Pseudomonas moorei) (protein)
chain: MIESVESFLARLKKRDPDQPEFHQAVEEVLRSLWPFLEANPRYLTSGILERICEPERAIVFRVSWVDDQGKVQVNRGFRIQMNSAIGPYKGGLRFHPSVNLGVLKFLAFEQTFKNSLTSLPMGGGKGGSDFDPKGKSDAEVMRFCQAFMSELYRHIGADVDVPAGDIGVGAREIGFLFGQYKRLSNQFTSVLTGKGPSYGGSLIRPEATGFGCVYFAEEMLKRRGETVEGKRVAISGSGNVAQYAARKVMDLGGKVISLSDSEGTLYCESGLTEAQWQAVLELKNVQRGRISELAGRFGLEFLAGQRPWGLSCDIALPCATQNELDAEAARALLRNGCTCVAEGANMPTTLEAVDLFIEAGILFAPGKASNAGGVAVSGLEMSQNAMRLLWTGGEVDSKLHAIMQSIHHACVHYGEENGQVNYVKGANIAGFVKVADAMLAQGVV
For B1, the Km (as a rule, the substrate concentration at which the rate is half of its maximum) in [1] (setting [15]) is 0.12 mM. Moreover, the kcat/Km (usually the second-order rate constant that governs catalysis at low substrate concentration) in data set [1] (other: pH 7.4, 35° C.) came to 395.91 s⁻¹ mM⁻¹. Further, in data set [2], the Km is reported as 3.12 mM; the kcat (usually the number of substrate molecules converted per active site and unit of time at saturation) amounted to 47.51 ± 2.05 s⁻¹; the kcat/Km was found to be 15.22 s⁻¹ mM⁻¹.

B2: Pseudomonas moorei glufosinate-ammonium dehydrogenase E3 (SEQ ID NO: 6) variant PPTGDH-F188P (Pseudomonas moorei; F188P) (protein)
chain: B1 chain with F188P
Consider B2, for which, in [3], the Km worked out at 0.14 mM and the catalytic efficiency (kcat/Km) is 239.29 s⁻¹ mM⁻¹. In data set [4], the Km came to 4.16 mM, the kcat turned out to be 33.50 ± 1.51 s⁻¹ and the kcat/Km amounted to 8.05 s⁻¹ mM⁻¹.

B3: Pseudomonas moorei glufosinate-ammonium dehydrogenase E3 (SEQ ID NO: 6) variant PPTGDH-L107R (Pseudomonas moorei; L107R) (protein)
chain: B1 chain with L107R
For B3, in data set [5], the Km was 0.102 mM and the catalytic efficiency (kcat/Km) worked out at 411.96 s⁻¹ mM⁻¹. Also, in data set [6], the Km worked out at 2.43 mM, the kcat turned out to be 42.02 ± 2.47 s⁻¹ and the kcat/Km worked out at 17.29 s⁻¹ mM⁻¹.

B4: Pseudomonas moorei glufosinate-ammonium dehydrogenase E3 (SEQ ID NO: 6) variant PPTGDH-G239K (Pseudomonas moorei; G239K) (protein)
chain: B1 chain with G239K
Take B4: in data set [7], the Km stood at 0.068 mM and the kcat/Km is 499.70 s⁻¹ mM⁻¹. Besides, in data set [8], the Km is 2.53 mM, the kcat amounted to 33.98 ± 1.55 s⁻¹ and the kcat/Km stood at 13.43 s⁻¹ mM⁻¹.

B5: Pseudomonas moorei glufosinate-ammonium dehydrogenase E3 (SEQ ID NO: 6) variant PPTGDH-L107R-F188P-G239K (Pseudomonas moorei; F188P/G239K/L107R) (protein)
chain: B1 chain with L107R, F188P, G239K
In the case of B5, in [9], the Km turned out to be 0.045 mM and the kcat/Km stood at 13500 s⁻¹ mM⁻¹. Also, in [10], the Km was 2.09 mM, the kcat came out at 607.5 ± 4.02 s⁻¹ and the kcat/Km worked out at 290.67 s⁻¹ mM⁻¹.

B6: Pseudomonas moorei glufosinate-ammonium dehydrogenase E3 (SEQ ID NO: 6) variant PPTGDH-L107R-F188P-G239K-F357G, SEQ ID NO: 9 (Pseudomonas moorei; … (protein)
chain: B1 chain with L107R, F188P, G239K, F357G
As to B6, in [1] (setting [15]), the Km amounted to 0.052 mM and the kcat/Km worked out at 13703 s⁻¹ mM⁻¹. In data set [2], the Michaelis constant (Km) worked out at 2.11 mM, the kcat was found to be 712.6 ± 3.21 s⁻¹ and the kcat/Km amounted to 337.73 s⁻¹ mM⁻¹.

B7: Pseudomonas moorei glufosinate-ammonium dehydrogenase E3 (SEQ ID NO: 6) variant PPTGDH-F357G (Pseudomonas moorei; F357G) (protein)
chain: B1 chain with F357G
As for B7, in [11], the Km was 0.105 mM and the kcat/Km was 536 s⁻¹ mM⁻¹. Moreover, in data set [12], the Michaelis-Menten constant (Km) was found to be 3.35 mM, the kcat was determined as 56.31 ± 1.80 s⁻¹ and the kcat/Km was found to be 16.808 s⁻¹ mM⁻¹.

B8: Pseudomonas moorei glufosinate-ammonium dehydrogenase E3 (SEQ ID NO: 6) variant PPTGDH-L107R-F188P (Pseudomonas moorei; F188P/L107R) (protein)
chain: B1 chain with L107R, F188P
With B8, in [13], the Km was 0.112 mM and the kcat/Km came to 599.11 s⁻¹ mM⁻¹. Also, in data set [14], the Michaelis-Menten constant (Km) was 3.22 mM, the kcat is 67.10 ± 2.81 s⁻¹ and the kcat/Km was determined as 20.84 s⁻¹ mM⁻¹.
